How the values were obtained:
[1] = molecular target: Kv channel auxiliary β subunit (rat) (UniProt P62483); experiment: negative staining electron microscopy; Kv chimera in lipid nanodiscs diluted to ~0.03 mg/ml, 0.7% uranyl formate; 2D class averages
[2] = molecular target: Kv channel auxiliary β subunit (rat) (UniProt P62483); experiment: cryo-EM structure; Kv chimera α4β4 complex in MSP1E3D1 lipid nanodiscs (3:1:1 POPC:POPG:POPE); 0.7 mg/ml in 20 mM HEPES-KOH pH 7.5, 150 mM KCl, 2 mM TCEP; gold grids; C4 symmetry imposed
[3] = molecular target: the molecule itself; experiment: as above

| Molecule | stoichiometry N [1] | stoichiometry N [2] | stoichiometry N [3] |
| --- | --- | --- | --- |
| Kv channel auxiliary β subunit (from UniProt P62483 36-367) (natural protein) | 4 | 4 | – |
| Kv1.2–2.1 paddle chimera channel, α subunit (other) MTVATGDPVDEAAAHPGHPQDTYDPEADHECCERVVINISGLRFETQLKTLAQFPETLLGDPKKRMRYFDPLRNEYFFDRNRPSFDAILYYYQSGGRLRRPVNVPLDIFSEEIRFYELGEEAMEMFREDEGYIKEEERPLPENEFQRQVWLLFEYPESSGPARIIAIVSVMVILISIVSFCLETLPIFRDENEDMHGGGVTFHTYSQSTIGYQQSTSFTDPFFIVETLCIIWFSFEFLVRFFACPSKAGFFTNIMNIIDIVAIIPYYVTIFLTESNKSVLQFQNVRRVVQIFRIMRILRIFKLSRHSKGLQILGQTLKASMRELGLLIFFLFIGVILFSSAVYFAEADERDSQFPSIPDAFWWAVVSMTTVGYGDMVPTTIGGKIVGSLCAIAGVLTIALPVPVIVSNFNYFYHRETEGEEQAQYLQVTSCPKIPSSPDLKKSRSASTISKSDYMEIQEGVNNSNEDFREENLKTANCTLANTNYVNITKMLTDV | – | – | 4 |

Reference: paper PMC6093707, “Single-particle cryo-EM structure of a voltage-activated potassium channel in lipid nanodiscs” (eLife, 2018)
